Data reported in US20190263889A1.
Values joined by “and” are separate entries in the source; they are usually repeats but may differ in a detail not shown here. Equal values may be shown once. Read-outs that look alike come from different tables or passages of the source.

How the values were obtained:
[1] = target: CTLA-4Fc mutant protein M1 (human (murine residues substituted)); experiment: ELISA; binder 10 ng/ml on coated target
[2] = target: CTLA-4Fc mutant protein M6 (human (murine residues substituted)); experiment: ELISA; binder 10 ng/ml on coated target
Chain of CTLA-4Fc mutant protein M6 (human (murine residues substituted)) (chain, as listed by the source mutant): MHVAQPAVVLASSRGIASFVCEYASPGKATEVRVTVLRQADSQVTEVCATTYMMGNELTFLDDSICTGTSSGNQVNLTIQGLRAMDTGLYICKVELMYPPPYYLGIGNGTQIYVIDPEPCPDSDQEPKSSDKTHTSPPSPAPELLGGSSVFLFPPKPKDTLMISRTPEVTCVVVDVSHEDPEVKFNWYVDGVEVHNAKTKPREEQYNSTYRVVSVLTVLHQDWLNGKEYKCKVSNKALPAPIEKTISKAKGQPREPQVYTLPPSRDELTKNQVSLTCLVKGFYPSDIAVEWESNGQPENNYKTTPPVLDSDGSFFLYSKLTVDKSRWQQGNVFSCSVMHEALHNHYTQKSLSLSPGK

[3] = target: CTLA-4Fc mutant protein M10 (human (murine residues substituted)); experiment: ELISA; binder 10 ng/ml on coated target
Chain of CTLA-4Fc mutant protein M10 (human (murine residues substituted)) (chain, as listed by the source mutant): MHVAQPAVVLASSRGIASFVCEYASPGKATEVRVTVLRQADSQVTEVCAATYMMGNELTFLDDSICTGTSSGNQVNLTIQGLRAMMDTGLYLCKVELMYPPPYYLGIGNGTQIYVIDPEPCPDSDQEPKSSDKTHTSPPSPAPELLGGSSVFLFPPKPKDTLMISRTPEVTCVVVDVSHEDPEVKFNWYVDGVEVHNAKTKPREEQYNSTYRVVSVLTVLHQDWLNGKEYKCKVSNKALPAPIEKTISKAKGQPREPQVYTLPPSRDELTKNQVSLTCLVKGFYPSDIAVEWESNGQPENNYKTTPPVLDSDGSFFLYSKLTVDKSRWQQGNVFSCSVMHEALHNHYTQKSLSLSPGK

[4] = target: CTLA-4Fc mutant protein M11 (human (murine residues substituted)); experiment: ELISA; binder 10 ng/ml on coated target
Chain of CTLA-4Fc mutant protein M11 (human (murine residues substituted)) (chain, as listed by the source mutant): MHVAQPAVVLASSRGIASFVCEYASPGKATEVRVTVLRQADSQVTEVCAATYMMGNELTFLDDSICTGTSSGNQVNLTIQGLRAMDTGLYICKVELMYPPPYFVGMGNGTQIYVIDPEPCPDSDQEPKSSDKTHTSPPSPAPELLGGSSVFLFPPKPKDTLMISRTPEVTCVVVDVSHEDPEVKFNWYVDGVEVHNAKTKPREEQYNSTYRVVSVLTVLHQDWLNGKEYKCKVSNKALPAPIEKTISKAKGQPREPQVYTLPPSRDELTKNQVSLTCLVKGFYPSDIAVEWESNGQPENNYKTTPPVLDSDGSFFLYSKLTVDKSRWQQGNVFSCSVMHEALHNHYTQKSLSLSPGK

[5] = target: wild type human CTLA-4Fc fusion protein (abatacept) (human); experiment: ELISA; binder 10 ng/ml on coated target
Chain of wild type human CTLA-4Fc fusion protein (abatacept) (human) (chain, as listed by the source limits assumed): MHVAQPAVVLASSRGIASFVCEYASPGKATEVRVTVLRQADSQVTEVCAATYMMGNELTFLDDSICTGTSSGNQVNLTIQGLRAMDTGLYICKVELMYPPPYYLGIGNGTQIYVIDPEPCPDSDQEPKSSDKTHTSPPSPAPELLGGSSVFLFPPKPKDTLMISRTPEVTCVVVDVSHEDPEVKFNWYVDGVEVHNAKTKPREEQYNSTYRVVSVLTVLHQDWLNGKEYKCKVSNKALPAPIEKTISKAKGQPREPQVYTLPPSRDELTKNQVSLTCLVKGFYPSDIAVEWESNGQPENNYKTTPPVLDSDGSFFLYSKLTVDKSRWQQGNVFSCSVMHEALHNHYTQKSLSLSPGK

[6] = target: CTLA-4Fc mutant protein M5 (human (murine residues substituted)); experiment: ELISA; binder 10 ng/ml on coated target
Chain of CTLA-4Fc mutant protein M5 (human (murine residues substituted)) (chain, as listed by the source mutant): as the sequence (chain, as listed by the source limits assumed) above, with Y52F, M53T, M54E, G55K, E57T, L58V, T59G counted along it

[7] = target: CTLA-4Fc mutant protein M4 (human (murine residues substituted)); experiment: ELISA; binder 10 ng/ml on coated target
Chain of CTLA-4Fc mutant protein M4 (human (murine residues substituted)) (chain, as listed by the source mutant): as the sequence (chain, as listed by the source limits assumed) above, with Q39T, A40N, S42Q, Q43M counted along it

[8] = target: CTLA-4Fc mutant protein M3 (human (murine residues substituted)); experiment: ELISA; binder 0 (blank) on coated target
Chain of CTLA-4Fc mutant protein M3 (human (murine residues substituted)) (chain, as listed by the source mutant): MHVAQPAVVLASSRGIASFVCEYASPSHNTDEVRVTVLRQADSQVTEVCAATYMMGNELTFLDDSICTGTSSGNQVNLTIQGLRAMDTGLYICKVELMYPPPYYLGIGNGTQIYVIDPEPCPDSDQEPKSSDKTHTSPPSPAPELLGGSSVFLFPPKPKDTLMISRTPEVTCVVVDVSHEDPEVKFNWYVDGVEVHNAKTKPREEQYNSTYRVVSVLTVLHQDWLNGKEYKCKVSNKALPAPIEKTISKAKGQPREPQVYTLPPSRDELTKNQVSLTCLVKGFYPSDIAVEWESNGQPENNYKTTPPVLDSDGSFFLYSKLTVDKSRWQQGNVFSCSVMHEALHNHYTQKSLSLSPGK

[9] = target: CTLA-4Fc mutant protein M2 (human (murine residues substituted)); experiment: ELISA; binder 0 (blank) on coated target
Chain of CTLA-4Fc mutant protein M2 (human (murine residues substituted)) (chain, as listed by the source mutant): as the sequence (chain, as listed by the source limits assumed) above, with R14H, I16L, V20P counted along it

[10] = target: CTLA-4Fc mutant protein M8 (human (murine residues substituted)); experiment: ELISA; binder 0 (blank) on coated target
Chain of CTLA-4Fc mutant protein M8 (human (murine residues substituted)) (chain, as listed by the source mutant): as the sequence (chain, as listed by the source limits assumed) above, with S70F, S71N, G72E, N73S, Q74R counted along it

[11] = target: CTLA-4Fc mutant protein M1 (human (murine residues substituted)); experiment: ELISA; binder 0 (blank) on coated target
[12] = target: CTLA-4Fc mutant protein M6 (human (murine residues substituted)); experiment: ELISA; binder 0 (blank) on coated target
[13] = target: CTLA-4Fc mutant protein M7 (human (murine residues substituted)); experiment: ELISA; binder 0 (blank) on coated target
Chain of CTLA-4Fc mutant protein M7 (human (murine residues substituted)) (chain, as listed by the source mutant): as the sequence (chain, as listed by the source limits assumed) above, with D63Y, S64P, I65F, T67S counted along it

[14] = target: CTLA-4Fc mutant protein M10 (human (murine residues substituted)); experiment: ELISA; binder 0 (blank) on coated target
[15] = target: CTLA-4Fc mutant protein M11 (human (murine residues substituted)); experiment: ELISA; binder 0 (blank) on coated target
[16] = target: wild type human CTLA-4Fc fusion protein (abatacept) (human); experiment: ELISA; binder 0 (blank) on coated target
[17] = target: CTLA-4Fc mutant protein M5 (human (murine residues substituted)); experiment: ELISA; binder 0 (blank) on coated target
[18] = target: CTLA-4Fc mutant protein M9 (human (murine residues substituted)); experiment: ELISA; binder 0 (blank) on coated target
Chain of CTLA-4Fc mutant protein M9 (human (murine residues substituted)) (chain, as listed by the source mutant): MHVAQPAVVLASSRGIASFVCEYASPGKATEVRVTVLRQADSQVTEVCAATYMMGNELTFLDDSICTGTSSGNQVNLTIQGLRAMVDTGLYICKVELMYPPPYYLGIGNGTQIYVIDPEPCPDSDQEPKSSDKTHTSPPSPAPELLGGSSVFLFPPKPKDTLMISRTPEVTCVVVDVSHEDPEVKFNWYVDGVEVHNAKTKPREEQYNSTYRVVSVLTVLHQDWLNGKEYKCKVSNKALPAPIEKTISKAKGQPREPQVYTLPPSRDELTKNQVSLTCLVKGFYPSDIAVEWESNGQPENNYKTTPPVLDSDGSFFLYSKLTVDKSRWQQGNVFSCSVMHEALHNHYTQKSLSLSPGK

[19] = target: CTLA-4Fc mutant protein M4 (human (murine residues substituted)); experiment: ELISA; binder 0 (blank) on coated target
[20] = target: CTLA-4Fc mutant protein M2 (human (murine residues substituted)); experiment: ELISA; binder 10 ng/ml on coated target
[21] = target: CTLA-4Fc mutant protein M8 (human (murine residues substituted)); experiment: ELISA; binder 10 ng/ml on coated target
[22] = target: CTLA-4Fc mutant protein M1 (human (murine residues substituted)); experiment: ELISA; binder 10 ng/ml on coated target; remark: listed apart in the source
[23] = target: CTLA-4Fc mutant protein M7 (human (murine residues substituted)); experiment: ELISA; binder 10 ng/ml on coated target
[24] = target: CTLA-4Fc mutant protein M10 (human (murine residues substituted)); experiment: ELISA; binder 10 ng/ml on coated target; remark: listed apart in the source
[25] = target: CTLA-4Fc mutant protein M11 (human (murine residues substituted)); experiment: ELISA; binder 10 ng/ml on coated target; remark: listed apart in the source
[26] = target: wild type human CTLA-4Fc fusion protein (abatacept) (human); experiment: ELISA; binder 10 ng/ml on coated target; remark: listed apart in the source
[27] = target: CTLA-4Fc mutant protein M5 (human (murine residues substituted)); experiment: ELISA; binder 10 ng/ml on coated target; remark: listed apart in the source
[28] = target: CTLA-4Fc mutant protein M9 (human (murine residues substituted)); experiment: ELISA; binder 10 ng/ml on coated target
[29] = target: human IgG1-Fc control (human) [IgG part: P01857]; experiment: ELISA; binder 10 ng/ml on coated target
[30] = target: CTLA-4Fc mutant protein M4 (human (murine residues substituted)); experiment: ELISA; binder 10 ng/ml on coated target; remark: listed apart in the source
[31] = target: CTLA-4Fc mutant protein M3 (human (murine residues substituted)); experiment: ELISA; binder 0 (blank) on coated target; remark: listed apart in the source
mouse CTLA-4-Fc (mouse) = mouse CTLA-4-Fc (mouse) (UniProt P09793); experiment: ELISA; binder 0 (blank) on coated target
Chain of mouse CTLA-4-Fc (mouse) (P09793 36-161 limits assumed): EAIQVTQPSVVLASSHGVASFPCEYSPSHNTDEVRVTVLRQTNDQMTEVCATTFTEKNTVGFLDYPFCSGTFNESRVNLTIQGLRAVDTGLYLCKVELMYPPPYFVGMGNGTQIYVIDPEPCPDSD

[32] = target: CTLA-4Fc mutant protein M2 (human (murine residues substituted)); experiment: ELISA; binder 0 (blank) on coated target; remark: listed apart in the source
[33] = target: CTLA-4Fc mutant protein M8 (human (murine residues substituted)); experiment: ELISA; binder 0 (blank) on coated target; remark: listed apart in the source
[34] = target: CTLA-4Fc mutant protein M1 (human (murine residues substituted)); experiment: ELISA; binder 0 (blank) on coated target; remark: listed apart in the source
[35] = target: CTLA-4Fc mutant protein M6 (human (murine residues substituted)); experiment: ELISA; binder 0 (blank) on coated target; remark: listed apart in the source
[36] = target: CTLA-4Fc mutant protein M7 (human (murine residues substituted)); experiment: ELISA; binder 0 (blank) on coated target; remark: listed apart in the source
[37] = target: CTLA-4Fc mutant protein M10 (human (murine residues substituted)); experiment: ELISA; binder 0 (blank) on coated target; remark: listed apart in the source
[38] = target: CTLA-4Fc mutant protein M11 (human (murine residues substituted)); experiment: ELISA; binder 0 (blank) on coated target; remark: listed apart in the source
[39] = target: wild type human CTLA-4Fc fusion protein (abatacept) (human); experiment: ELISA; binder 0 (blank) on coated target; remark: listed apart in the source
[40] = target: CTLA-4Fc mutant protein M5 (human (murine residues substituted)); experiment: ELISA; binder 0 (blank) on coated target; remark: listed apart in the source
[41] = target: CTLA-4Fc mutant protein M9 (human (murine residues substituted)); experiment: ELISA; binder 0 (blank) on coated target; remark: listed apart in the source
[42] = target: human IgG1-Fc control (human) [IgG part: P01857]; experiment: ELISA; binder 0 (blank) on coated target
[43] = target: CTLA-4Fc mutant protein M4 (human (murine residues substituted)); experiment: ELISA; binder 0 (blank) on coated target; remark: listed apart in the source

Chain of CTLA-4Fc mutant protein M1 (human (murine residues substituted)) (chain, as listed by the source mutant): as the sequence (chain, as listed by the source limits assumed) above, with M1I, H2Q, A4T, A7S counted along it

**Q.** What does the source list for “chimeric L3D10 anti-human CTLA-4 antibody”?
**A.** OD450 [1]: 2.47 OD450 and 2.43 OD450; OD450 [2]: 1.03 OD450 and 0.976 OD450; OD450 [3]: 0.18 OD450 and 0.169 OD450; OD450 [4]: 0.202 OD450 and 0.203 OD450; OD450 [5]: 1.43 OD450 and 1.52 OD450; OD450 [6]: 1.54 OD450 and 1.37 OD450; OD450 [7]: 0.507 OD450 and 0.356 OD450; OD450 [8]: 0.187 OD450 and 0.18 OD450; OD450 [9]: 0.2 OD450 and 0.185 OD450; OD450 [10]: 0.187 OD450 and 0.17 OD450; OD450 [11]: 0.196 OD450 and 0.187 OD450; OD450 [12]: 0.192 OD450 and 0.176 OD450; OD450 [13]: 0.198 OD450 and 0.176 OD450; OD450 [14]: 0.179 OD450 and 0.166 OD450; OD450 [15]: 0.183 OD450 and 0.167 OD450; OD450 [16]: 0.202 OD450 and 0.195 OD450; OD450 [17]: 0.189 OD450 and 0.176 OD450; OD450 [18]: 0.179 OD450 and 0.166 OD450; OD450 [19]: 0.184 OD450 and 0.176 OD450; OD450 [20]: 0.469 OD450 and 0.333 OD450; OD450 [21]: 1.27 OD450 and 1.45 OD450; OD450 [22]: 2.69 OD450 and 2.78 OD450; OD450 [23]: 0.837 OD450 and 0.884 OD450; OD450 [24]: 0.157 OD450; OD450 [25]: 0.19 OD450 and 0.194 OD450; OD450 [26]: 1.71 OD450 and 1.8 OD450; OD450 [27]: 1.85 OD450 and 1.8 OD450; OD450 [28]: 0.158 OD450 and 0.213 OD450; OD450 [29]: 0.201 OD450 and 0.182 OD450; OD450 [30]: 0.817 OD450 and 0.563 OD450; OD450 [31]: 0.183 OD450 and 0.167 OD450; OD450 (mouse CTLA-4-Fc (mouse)): 0.19 OD450 and 0.189 OD450; OD450 [32]: 0.377 OD450 and 0.538 OD450; OD450 [33]: 0.368 OD450 and 0.217 OD450; OD450 [34]: 0.222 OD450; OD450 [35]: 0.183 OD450 and 0.177 OD450; OD450 [36]: 0.186 OD450 and 0.142 OD450; OD450 [37]: 0.215 OD450 and 0.114 OD450; OD450 [38]: 0.171 OD450 and 0.155 OD450; OD450 [39]: 0.18 OD450 and 0.177 OD450; OD450 [40]: 0.177 OD450 and 0.229 OD450; OD450 [41]: 0.15 OD450 and 0.293 OD450; OD450 [42]: 0.198 OD450 and 0.184 OD450; OD450 [43]: 0.22 OD450 and 0.18 OD450
